How the values were obtained:
[1] = target: T1, anti-CD28 Fab (SEQ ID NOs: 202, 203); experiment: phage binding ELISA; Fab wells pre-incubated with CD28 antigen (competitor);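 note: clonal phage supernatants added to wells preincubated with CD28 antigen in blocking buffer versus blocking buffer alone, washed, bound phage read by HRP-conjugated anti-M13 antibody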
T1 construct: biotinylated and captured on neutravidin coated plates in the phage ELISA
T1 sequence (VH, as listed by the source, chain 1 of 2): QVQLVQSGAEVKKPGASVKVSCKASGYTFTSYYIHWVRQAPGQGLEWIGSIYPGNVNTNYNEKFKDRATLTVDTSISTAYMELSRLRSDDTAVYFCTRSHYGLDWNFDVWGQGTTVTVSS
T1 sequence (VL, as listed by the source, chain 2 of 2): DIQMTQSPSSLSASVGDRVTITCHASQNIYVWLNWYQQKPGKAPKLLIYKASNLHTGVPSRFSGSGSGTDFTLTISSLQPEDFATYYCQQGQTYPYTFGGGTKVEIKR
Method: (§1) Clonal phage were harvested as crude supernatants and screened via standard ELISAs. […] Prior to the addition of clonal phage, wells were incubated with blocking buffer and CD28 antigen or blocking buffer alone. Without washing or aspirating, clonal phage supernatants were then added to the wells and incubated for a short time. Wells were then washed followed by detection of bound phage using a horse radish conjugated anti-M13 antibody.

[2] = target: T1, anti-CD28 Fab (SEQ ID NOs: 202, 203); experiment: phage binding ELISA; biotinylated Fab on neutravidin plate;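 note: clonal phage supernatants added to Fab wells pretreated with CD28 antigen or with blocking buffer only, bound phage read out via HRP-linked anti-M13 antibody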
Method: as §1

[3] = target: anti-CD28 Fab (SEQ ID NOs: 202, 203); experiment: phage ELISA, Fab on plate;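 note: ELISA of crude clonal phage supernatants on the plate, wells preloaded with CD28 antigen or only blocking buffer, captured phage read out via HRP-linked anti-M13 antibody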
Target sequence in this assay (VH, as listed by the source, chain 1 of 2): as the sequence (VH, as listed by the source, chain 1 of 2) above
Target sequence in this assay (VL, as listed by the source, chain 2 of 2): as the sequence (VL, as listed by the source, chain 2 of 2) above
Method: After panning, phage infected bacteria were plated out and colonies picked into 96 well blocks. Clonal phage was then amplified and separated from bacterial cells via centrifugation.
Clonal phage were harvested as crude supernatants and screened via standard ELISAs. […] Prior to the addition of clonal phage, wells were incubated with blocking buffer and CD28 antigen or blocking buffer alone. Without washing or aspirating, clonal phage supernatants were then added to the wells and incubated for a short time. Wells were then washed followed by detection of bound phage using a horse radish conjugated anti-M13 antibody. Clonal phage of interest were then sent for sequence analysis.

| Binder | Anti-CD28 Fab signal in the presence of CD28 [1] | Anti-CD28 Fab (SEQ ID NOs: 202, 203) signal [2] | Anti-CD28 Fab signal [3] |
| --- | --- | --- | --- |
| YCDGHLPEYMGKCL [Phage-316] | 0.11 | 1.89 | – |
| YCEGHLPAYMQKCL [Phage-377] | 0.07 | 1.78 | – |
| YCEGHLPEYMRKCL [Phage-349] | 0.06 | 1.83 | – |
| YCEGHSYEYMWKCL [Phage-328] | 0.08 | 1.88 | – |
| YCEGHSPEYMRKCL [Phage-385] | 0.08 | 1.77 | – |
| YCEGHKPEYMQKCL [Phage-447] | 0.06 | 1.69 | – |
| YCEGHLPEYMMKCL [Phage-329] | 0.27 | 1.88 | – |
| YCEGHSPEYMWKCL [Phage-321] | 0.09 | 1.89 | – |
| YCDGHLPEYMRKCL [Phage-330] | 0.08 | 1.88 | – |
| YCDGHLAEYMPKCL [Phage-320] | 0.07 | 1.89 | – |
| YCDGHLAEYMVKCL [Phage-375] | 0.08 | 1.79 | – |
| YCAGHAPQYMEKCL [Phage-312] | 0.08 | 1.9 | – |
| SCAAGSTWAWPACL [Phage-1210] | – | – | 1.07 |
| SCAAVFSFNWPECF [Phage-1216] | – | – | 1.01 |
| YCDGHLKEYMAKCL [Phage-314] | 0.07 | 1.9 | – |
| YCDGHLSEYMFKCL [Phage-371] | 0.1 | 1.79 | – |
| YCDGHAIEYMAKCL [Phage-446] | 0.08 | 1.69 | – |
| YCDGHRPEYMEKCL [Phage-315] | 0.06 | 1.9 | – |
| YCDGHIDEYLQKCL [Phage-322] | 0.06 | 1.88 | – |
| YCEGHRPEYMAKCL [Phage-348] | 0.07 | 1.83 | – |
| YCEGHIPEYMAKCL [Phage-318] | 0.06 | 1.89 | – |

| Binder | Anti-CD28 Fab signal in the presence of CD28 [1] | Anti-CD28 Fab (SEQ ID NOs: 202, 203) signal [2] | Anti-CD28 Fab signal [3] |
| --- | --- | --- | --- |
| YCEGHRSEYMAKCL [Phage-336] | 0.06 | 1.86 | – |
| YCEGHMSEYMAKCL [Phage-325] | 0.11 | 1.88 | – |
| SCTAGFRIHWPMCF [Phage-1212] | – | – | 1.06 |
| PCAAGAQWSWPMCL [Phage-1209] | – | – | 1.07 |
| YCDGHSWEYIQKCL [Phage-326] | 0.07 | 1.88 | – |
| YCEGHLSEYMSKCL [Phage-324] | 0.09 | 1.88 | – |
| YCEGHLQEYMEKCL [Phage-317] | 0.1 | 1.89 | – |
| YCVGHLQEYMEKCL [Phage-389] | 0.06 | 1.76 | – |
| SCAAGAAYAWPWCL [Phage-1213] | – | – | 1.05 |
| SCAAGFHYEWPQCF [Phage-1211] | – | – | 1.06 |
| YCAGHLPQYIAKCL [Phage-313] | 0.09 | 1.9 | – |
| WCSEVFSYPWPACL [Phage-1218] | – | – | 0.99 |
| YCDGHSPEYMPKCL [Phage-319] | 0.08 | 1.89 | – |
| LCDQFFHYNWPACL [Phage-1215] | – | – | 1.04 |
| SCTAVFSYALSPCF [Phage-1219] | – | – | 0.99 |
| TCSAGASYSWPYCM [Phage-1217] | – | – | 1 |
| MCTAGFSFNWPECL [Phage-1214] | – | – | 1.05 |
| YCEGHVAEYMLKCL [Phage-323] | 0.05 | 1.88 | – |
| YCEGHSQEYMQKCL [Phage-344] | 0.05 | 1.84 | – |
| YCEGHSAEYMQKCL [Phage-443] | 0.29 | 1.7 | – |
